Assay results taken from the DeepSol protein solubility set.

Assay: soluble on expression in E. coli; label from the status in PepcDB or PDB records

Sequence | soluble on expression in E. coli
MRLIEQAIEKIESGQVTEGLTALEEAAKTANHEMKYTVAETYYELGHLDKAQAIIDELLMLYPDEGGLYTFAAEILIDLNKEDEAIEMLNEIKEQDPAFLQAQLLLADLYQLQSLDEVAEQKLLKAYEVAPDEPIISFGLGEFYLERGDYIKSIPHLKRAKHGGLTNDQVNVSLKLAEAYSGSGQFEEALPHYDEGLKQKLDPHGLFGYGYTAYLLGDYVLAIEQFQALKALDPDFYDPIPVFGEGFRRGKSFRGSNGCFKRGDDRGLEHHHHHH | soluble
MDSIERKKTKPYNINEKEILDIVAAKGSYLSSISENLEEVPPHKESSSRAESKKTITDEEVKKYIEALLNNFSSNRRKPLHIDAQVYECISDIVWAVRRKDFTVSGVISRILVEHIKENAGMIKKITGRDYKLLQP | not soluble
VPWEDVFKSFDPNPLAAGTIAQVHRATLETGDRVVVKVQRPTARADIEQDLALFEMFAEKVGKRPALNQVINMEDVFKHLSTSLHRELDFRQEANNIERMRTVLADYDRLAVPSIHWDLS | not soluble
KLKPFNDEKTAKIAEEVQQFYESNATISLNEYLENVGELGYELYLTDGAEKSTYYGGAFRKKDLPDKTIKQVLDGETYHGIDSFDTGIFITGFFDNDVRNTIGVPVQADGKQLALFIRQDPEKQFGELRIF | soluble
MRELKVVGLDADGKNIICQGAIPSEQFKLPVDDRLRAALRDDSVQPEQAQLDIEVTNVLSPKEIQARIRAGASVEQVAAASGSDIARIRRFAHPVLLERSRAAELATAAHPVLADGPAVLTMQETVAAALVARGLNPDSLTWDAWRNEDSRWTVQLAWKAGRSDNLAHFRFTPGAHGGTATAIDDTAHELINPTFNRPLRPLAPVAHLDFDEPEPAQPTLTVPSAQPVSNRRGKPAIPAWEDVLLGVRSGGRR | soluble
MARPNFRYTHYDLKELRAGTTLEISLSSVNNVRLMTGANFQRFTELLDFKYLGGVAKKSPIRIAVPETMHWHLIIDAEGHSGLAESSVKMLPAQPQATLTRKAS | soluble
MGSDKIHHHHHHMLEELSENVWIAEGTCVSFHGFHGFHGFHGFHGFHGFQYPTRSVVVRLKSGAMWVWSPVKFDQDLADEIESLGTITHLVSPNKIHHLFLADWSSHVPTAKIWGPRSTVNKRRDLVFQPALDHLPPRDWAEDFEQFHVKGSLAMDEILFLHKQSNTLILADFSEHFSDQFLQRHWQPWQRRIGQFWGITEGRGFAPLDWRLSFLNRSHLRTLKQQLLDRQVDHVVMAHGEIARTDGHRFLQRSLAWI | not soluble
MAGDPNSMNLKQSIEEIINQPEYEPMSVSDFQDALGLSSADSFRDLIKVLVELEQSGLIERTKTDRYQKKHSSKGHSKLIKGTLSQNKKGFAFLRPEDEDMEDIFIPPTKINRALDGDTVIVEIHQSKGEHKGKIEGEVKSIEKHSVTQVVGTYSEARHFGFVIPDDKRIMQDIFIPKGQSLGAVDGHKVLVQITKYADGSDNPEGHISAILGHKNDPGVDILSIIYQHGIEIEFPDEVLQEAEAVPDHIENTEIKGRHDLRDELTITIDGADAKDLDDAISVKKLANGNTQLTVSIADVSYYVTEGSALDKEAYDRATSVYLVDRVIPMIPHRLSNGICSLNPNVDRLTLSCRMEIDASGRVVKHEIFDSVIHSDYRMTYDAVNQIITEKDPNIREQYKEITPMLDLAQDLSNRLIQMRKRRGEIDFDINEAKVLVNEDGIPTDVQLRQRGEGERLIESFMLIANETVAEHFSKLDVPFIYRVHEQPKSDRLRQFFDFITNFGIMIKGTGEDIHPTTLQKVQEEVEGRPEQMVISTMMLRSMQQAHYDDVNLGHFGLSAEYYTHFTSPIRRYPDLTVHRLIRKYLIEKSMDNKEVKRWEDKLPELAEHTSKRERRAIEAERDTDELKKAEYMIQHIGDEFEGIVSSVANFGMFIELPNTIEGMVHIANMTDDYYRFEERQMALIGERQAKVFRIGDTVKVKVTHVDVDERLIDFQIVGMPLPKNDRSQRPARGKTIQAKTRGKSLDKSKSDDKGRKKKGSQRKGKNERKNDKSGNSKHKPFYKDKSVKKKARRKKKLEHHHHHH | soluble
MLIPWQDLSPETLENLIESFVLREGTDYGEHERTLEQKVADVKRQLQCGEAVLVWSELHETVNIMPRSQFRE | soluble
TQEDVVVTLSHQGYVKYQPLSEYEAQRRGGKGKSAARIKEEDFIDRLLVANTHDHILCFSSRGRVYSMKVYQLPEATRGARGRPIVNLLPLEQDERITAILPVTEFEEGVKVFMATANGTVKKTVLTEFNRLRTAGKVAIKLVDGDELIGVDLTSGEDEVMLFSAEGKVVRFKESSVRAMGCNTTGVRGIRLGEGDKVVSLIVPRGDGAILTATQNGYGKRTAVAEYPTKSRATKGVISIKVTERNGLVVGAVQVDDCDQIMMITDAGTLVRTRVSEISIVGRNTQGVILIRTAEDENVVGLQRVAE | soluble
MSDQIADARLVPLGAILTRMSTVVDMPETRGHLISAITTASDPGEILYLSSRADFSEGGSIRGGVPIIAPWFAKNLGHDELQHGWARRVEWETIPTNGGIDARTSHDDWDLRLGTQVLPHGFAMMLKARNASPLRRDFQSAFHPYFRVADVRTTTVTVGDQEFRFDGTAVDQAVPLPEWTPLVIKDSQRTITVTYQGADHAVVWNPGSELAAQMTDVGEGEWTEFVCVEPALLGDHAQGISVPPWDWVEIGMTVKVTPAQ | not soluble
MADKKAPAAGWPVANGEYVVGNPESCVAVITLGSHGLDQAAIDAGAAISGPCHTENLGIEKVVANYISNPNIRFMVIAGSEVQGHITGQCIKALYENGIGDDGGIIGAKGAIPFMENVGKEPVGRLQTQVVECIDLIDVEDKGKIADAIKNCISKDPGAFEEDPMVIELEGGAAAAGDEEGGLMIEGIPTVAEPDIESIKSLNEALDYKVGLMTRDLGLASGVQTETVTG | not soluble
MGKLNRRDVIKGLGMAAASLAAAQRGLQARAAPSRIVWSPYVVFLNANAKAFIVDTRTDQVVASLDTARGATLGSMTPDAKKVYVSGAGEGETRVVILDLENLRVAKVLETGNRPKHGLVSPDGRRVGVDHWALSGGKLRLTFIRTEDDTIEKVLDIPVTNQPKGVTSMHNAWSWDSRYFFSVDRVDDRLVVVDTADWSVRTFSAPSVPHYPVVSPDGKELWLVHEGNDRVRPGIAVYDLTRPDLPIVAQVEMPLIGEDAVEAHHGNFTQDGRYFMALNRGPGNNLRGREVAFFSPRTKRLVHRLTCASTGVGHAYNSPDGRRVIATNYGNNVITVIDLLGLRTLKDLVIGKGRMGHVVFTPDGRFAYLSNADGNLYKLDMRSLTVVKVIETGQTNGGGQVLNVWTNVFEELPRG | soluble
MSEPISPRTPQQALAALLARYAPKHLLLVGASRLPAVEAFIHNHPQCQLAHSPAAALPAELAGQRFDLALFVDCLEHLPQRTGLQLLAGVRNLNASRVAVLVDLEASDWQETDFFALAMQNSERFQREGQTLTLYTYDLYEYKQVPDWLNAKFWANPENFGKYWW | not soluble
MGSDKIHHHHHHMNMNREQLKFCLLGAVFLFGGCTASDPRTHLDSSADTLFQITPDQNHAALERQSGTDQYLKLLLNVAEDAEVKEVQVKPGLVSKDTATLSMPLTDGRTVSFKLSRSDSVASGMVGWVGDMPSNRRQLYPSPAEIDMDPLNWVSLVSDGNLVVGDIRVDGQLYRLTAVGKGQQVLVKVDESKLPPEAAPIPVPVQAQEKTRSLSTSQSRKSTIRVLFVTTHQSRAMFPNYKIELAQALQNANQYLINSKVDAVYELSDIYDSDYDETGKSPQTQLSDMKADKPFGAKIHIEREKGRADLVSMLSTFSIYCGIANLTASVERAFSAISCFGSLGHELGHNMGAGHKDEAPVASLPPYAYGYQHTAPNFHTQMRTSNGAIPYHSNPRLQYQGVPMGTVDKNDVARTFNENRDTVANFYPDPAHRVRLWLYGANRGCFIDLKPGEQALLSWFTECKDNDVNPVRVEVKDFYSGSTPRKLCFANIFYTVNSCYTGSNFSGDFVITSVHTGGGKPEGFKFTRRLIGPVYRVSYE | not soluble
MPSENPIGKTMKSIDEQSLHNARRLFESGDIDRIEVGTTAGLQQIHRYLFGGLYDFAGQIREDNISKGGFRFANAMYLKEALVKIEQMPERTFEEIIAKYVEMNIAHPFLEGNGRSTRIWLDLVLKKNLKKVVNWQNVSKTLYLQAMERSPVNDLELRFLLKDNLTDDVDNREIIFKGIEQSYYYEGYEKG | soluble
